In series [1] the target is T1, C1 esterase (Homo sapiens, UniProt P09871).
T1 sequence (P09871 16-688): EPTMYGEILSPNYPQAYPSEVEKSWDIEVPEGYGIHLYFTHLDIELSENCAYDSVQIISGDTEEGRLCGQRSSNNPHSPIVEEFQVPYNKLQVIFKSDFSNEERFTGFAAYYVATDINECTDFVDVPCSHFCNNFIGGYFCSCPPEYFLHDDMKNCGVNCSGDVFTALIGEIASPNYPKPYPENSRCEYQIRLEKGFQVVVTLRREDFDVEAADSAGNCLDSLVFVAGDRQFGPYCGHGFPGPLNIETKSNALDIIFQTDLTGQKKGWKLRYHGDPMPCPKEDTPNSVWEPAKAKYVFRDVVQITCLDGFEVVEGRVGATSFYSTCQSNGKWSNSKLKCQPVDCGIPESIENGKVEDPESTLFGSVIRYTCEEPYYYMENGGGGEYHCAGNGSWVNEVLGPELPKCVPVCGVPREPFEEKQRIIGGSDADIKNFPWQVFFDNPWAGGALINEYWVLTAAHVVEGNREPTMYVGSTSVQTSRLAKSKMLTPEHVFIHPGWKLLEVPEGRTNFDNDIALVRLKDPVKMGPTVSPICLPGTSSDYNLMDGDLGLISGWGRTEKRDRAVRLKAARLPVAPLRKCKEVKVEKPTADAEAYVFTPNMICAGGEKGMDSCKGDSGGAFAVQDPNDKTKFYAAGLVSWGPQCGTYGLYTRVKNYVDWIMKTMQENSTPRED
The experiment in a line: C1 INH activity assay: inhibition of C1 esterase activity. Format: biochemical. Conditions: for Activity of C1 Esterase inhibition U/mg: 96-well plate, 37° C., kinetic substrate cleavage. The method, then: (§1) C1 INH activity was measured by the inhibition of C1 esterase and kallikrein activities. For the inhibition of C1 esterase activity, samples, standards, and controls were added to 96-well plate, and then C1-esterase was added. After 10 min incubation at 37° C., substrate of C1-eserasse was added. C1-esterase activity for cleavage of the substrate was monitored at 37° C. for 4 minutes kinetically. The higher C1 INH activity results in the lower C1 esterase activity or the lower cleavage rate of substrate. For the inhibition of kallikrein activity, EC50 was used to evaluate PEG-C1 INH activity. Lower EC50 value indicates higher activity of kallikrein inhibition.

The target of series [2] is T2, C1 esterase (UniProt P09871).
T2 sequence (looked up): T1 sequence (P09871 16-688)
Description: cell-based or functional assay.

Series [3] addresses T3, kallikrein (Homo sapiens, UniProt P03952). Description: cell-based or functional assay.
Target sequence in this assay (P03952 20-638 limits assumed): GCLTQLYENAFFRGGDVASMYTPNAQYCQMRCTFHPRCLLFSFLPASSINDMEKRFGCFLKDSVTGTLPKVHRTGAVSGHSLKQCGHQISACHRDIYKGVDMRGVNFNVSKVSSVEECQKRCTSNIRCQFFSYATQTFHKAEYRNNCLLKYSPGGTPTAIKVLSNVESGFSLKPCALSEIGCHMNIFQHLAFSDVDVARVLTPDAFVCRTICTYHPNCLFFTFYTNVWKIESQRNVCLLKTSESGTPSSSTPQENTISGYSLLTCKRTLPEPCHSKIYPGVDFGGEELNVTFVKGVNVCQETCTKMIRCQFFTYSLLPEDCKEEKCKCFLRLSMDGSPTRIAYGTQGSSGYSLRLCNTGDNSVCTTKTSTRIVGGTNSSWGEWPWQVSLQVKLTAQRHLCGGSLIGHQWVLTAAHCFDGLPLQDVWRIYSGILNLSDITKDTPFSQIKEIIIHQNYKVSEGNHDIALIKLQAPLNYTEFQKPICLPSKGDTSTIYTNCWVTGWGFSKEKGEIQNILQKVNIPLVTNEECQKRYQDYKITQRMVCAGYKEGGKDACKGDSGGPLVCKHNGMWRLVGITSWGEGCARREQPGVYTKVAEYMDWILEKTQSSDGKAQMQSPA
In series [4] the target is T3, kallikrein. Description: C1 INH activity assay: inhibition of kallikrein activity. Conditions: lower EC50 = higher activity. Format: biochemical. The method, then:
as §1
Target sequence in this assay (P03952 20-638): as the sequence (P03952 20-638 limits assumed) above

A short description of series [5]: Conjugate stability on SDS gel (heating, reduction, acid treatment). Format: physicochemical. The procedure:
The concentration of PEGylated C1 INH was determined by UV at 280 nm (extinction coefficient of C1 INH was 0.39 mL/mg·cm). Sample at 5 μg or 10 μg was loaded into the gel without sample reduction and heating for electrophoresis. In a separate experiment, the samples were heated at 70° C. for 7 minutes in the presence or absence of 75 mM β-mercaptoethanol in gel buffer. There was no evidence of conjugate breakdown under such conditions. […] The protein bands were visualized after simple blue stain. The density of the image was obtained on Molecular Dynamics. […] There were eight PEG (20 or 30k) strands attached per C1 INH as analyzed SEC-MALS.

pEC50: −log10 of the molar value.

Chain of PEG-20k-Glycan-C1 INH (60 mg scale) (P05155 23-500 limits assumed): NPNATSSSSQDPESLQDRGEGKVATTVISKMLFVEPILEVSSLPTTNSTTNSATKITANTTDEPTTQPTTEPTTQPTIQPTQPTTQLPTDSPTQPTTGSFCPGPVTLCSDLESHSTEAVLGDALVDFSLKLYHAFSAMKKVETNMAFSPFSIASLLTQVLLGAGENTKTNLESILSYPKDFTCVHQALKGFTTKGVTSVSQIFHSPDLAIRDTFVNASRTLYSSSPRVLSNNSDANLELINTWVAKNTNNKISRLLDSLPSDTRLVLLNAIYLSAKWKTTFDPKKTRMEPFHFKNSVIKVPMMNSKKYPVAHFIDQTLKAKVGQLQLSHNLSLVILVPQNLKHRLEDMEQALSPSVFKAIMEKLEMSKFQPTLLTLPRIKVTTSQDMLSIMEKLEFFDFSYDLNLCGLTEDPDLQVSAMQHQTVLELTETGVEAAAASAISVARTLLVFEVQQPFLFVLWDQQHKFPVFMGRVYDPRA
Chain of PEG-20k-Glycan-C1 INH (5 mg scale) (P05155 23-500 limits assumed): as above
Chain of C1 Esterase Inhibitor (C1 INH), native (P05155 23-500 limits assumed): as above

On to “PEG-20k-Glycan-C1 INH (5 mg scale): Same PEG-20k-hydrazide glycan conjugate of C1 INH prepared at 5 mg scale; PEG number pending”, for which the “Activity of C1 Esterase inhibition U/mg” value with C1 esterase [1] stood at 6.6 U/mg.

In the series with C1 esterase [2], “PEG-20k-Glycan-C1 INH (60 mg scale) (from UniProt P05155 23-500)” yielded an Activity of C1 Esterase inhibition, % C1 INH activity of 73% and an Activity of C1 Esterase inhibition, U/mg of 5.1 U/mg. In the series with kallikrein [3], this substance yielded an Activity of Kallikrein inhibition, % C1 INH activity of 67% and an Activity of Kallikrein inhibition, EC50 of 300 nM.

The pEC50 is the EC50 on a negative log10 scale, so that one unit is a factor of ten. Low values mean a large EC50, high ones a small EC50. Substance “C1 INH: C1 Esterase Inhibitor obtained from Athens Research & Technology, MW 73000 Da by MALDI; unmodified reference protein” gave a pEC50 in the series with kallikrein [4] of 6.70. Moreover, the “Activity of C1 Esterase inhibition U/mg” value with C1 esterase [1] is recorded as 7.0 U/mg.

Turning to “PEG-20k-Glycan-C1 INH (5 mg scale) (from UniProt P05155 23-500)”, in the series with C1 esterase [2], the % C1 INH activity on C1 esterase inhibition (small scale) came out at 97%; the Activity of C1 Esterase inhibition, % C1 INH activity was determined as 94%; the Activity of C1 Esterase inhibition, U/mg was found to be 6.6 U/mg.

On to “C1 Esterase Inhibitor (C1 INH), native (from UniProt P05155 23-500)”, for which, in the series with C1 esterase [2], the Activity of C1 Esterase inhibition, % C1 INH activity came to 100% and the Activity of C1 Esterase inhibition, U/mg was 7 U/mg. In the series with kallikrein [3], this substance registered an Activity of Kallikrein inhibition, % C1 INH activity of 100% and an Activity of Kallikrein inhibition, EC50 of 200 nM.

In the series with kallikrein [4], “PEG-20k-Glycan-C1 INH (60 mg scale): C1 INH oxidized with periodate at glycan and conjugated with PEG-hydrazide 20k; eight PEG strands per C1 INH” had a pEC50 of 6.52. For the same substance, the “Activity of C1 Esterase inhibition U/mg” value with C1 esterase [1] turned out to be 5.1 U/mg. For the same substance, the “% C1 INH activity on C1 esterase inhibition, small scale” value with C1 esterase [1] (small scale batch, relative to native C1 INH) is 97%. For the same substance, the “Stability of conjugate under acidic conditions” value in series [5] (0.1% TFA or sodium acetate, pH 4.7) is listed as “releasable”. In addition, the “Stability of conjugate to heating and reducing at neutral pH” value in series [5] (70° C. for 7 minutes, with or without 75 mM β-mercaptoethanol, SDS gel) was “stable”.
